Data: patent US20180185455A1 (OCTAPHARMA, published 2018)
Blank lines part the entries; values can stand above or below the molecule they belong to.

How the values were obtained:
recombinant Factor VIII [1] = target: recombinant Factor VIII (UniProt P00451); experiment: SPR (Biacore 2000), rFVIII coupled to CM5 chip, fragment injected
[2] = target: recombinant fragment III monomer with C-terminal Strep-Tag (human) (UniProt P04275); experiment: SPR (Biacore 2000), fragment III monomer immobilized on CM5, FVIII concentration series injected
[3] = target: recombinant fragment III dimer with C-terminal Strep-Tag (human) (UniProt P04275); experiment: SPR (Biacore 2000), fragment III dimer immobilized on CM5, FVIII concentration series injected
[4] = target: plasma derived full length Von Willebrand Factor (human) (UniProt P04275); experiment: SPR (Biacore 2000), plasma derived flVWF immobilized on a CM5 chip, FVIII concentration series injected; mean of n=4 per the legend
recombinant Factor VIII [5] = target: recombinant Factor VIII (UniProt P00451); experiment: SPR (Biacore 2000), rFVIII coupled to CM5 chip, VWF injected
[6] = target: T1, plasma derived full length Von Willebrand Factor (human, UniProt P04275 764-2813); experiment: SPR (Biacore 2000), collagen type III coupled to CM5 chip, VWF injected
T1 construct: Plasma VWF is multimeric; also called pdVWF; flVWF
Method: (§1) The analysis was carried out using Biacore 2000 instrument (GE Healthcare) according to Romjin et al. 2003 with modifications. Briefly human pepsin-digested collagen type III was covalently bound to the surface of a CM5 sensor chip. Subsequently the samples were injected over the sensor chip surface. The running buffer was 10 mM HEPES, 150 mM NaCl, 3.4 mM EDTA, 0.005% Tween 20.

[7] = target: T2, fragment III (SPIII, res. 764-2128) from plasma derived Von Willebrand Factor (human, UniProt P04275 764-2128); experiment: SPR (Biacore 2000), collagen type III coupled to CM5 chip, fragment injected
T2 construct: Made by S. aureus V-8 protease digestion of pdVWF; also called VWF fragment III
Method: as §1

Molecule: plasma derived full length Von Willebrand Factor (from UniProt P04275 764-2813)
Kd (recombinant Factor VIII [5]): 0.67 nM

B1: human pepsin-digested collagen type III (other, UniProt P02461 168-1196, looked up)
chain: GLAGYPGPAGPPGPPGPPGTSGHPGSPGSPGYQGPPGEPGQAGPSGPPGPPGAIGPSGPAGKDGESGRPGRPGERGLPGPPGIKGPAGIPGFPGMKGHRGFDGRNGEKGETGAPGLKGENGLPGENGAPGPMGPRGAPGERGRPGLPGAAGARGNDGARGSDGQPGPPGPPGTAGFPGSPGAKGEVGPAGSPGSNGAPGQRGEPGPQGHAGAQGPPGPPGINGSPGGKGEMGPAGIPGAPGLMGARGPPGPAGANGAPGLRGGAGEPGKNGAKGEPGPRGERGEAGIPGVPGAKGEDGKDGSPGEPGANGLPGAAGERGAPGFRGPAGPNGIPGEKGPAGERGAPGPAGPRGAAGEPGRDGVPGGPGMRGMPGSPGGPGSDGKPGPPGSQGESGRPGPPGPSGPRGQPGVMGFPGPKGNDGAPGKNGERGGPGGPGPQGPPGKNGETGPQGPPGPTGPGGDKGDTGPPGPQGLQGLPGTGGPPGENGKPGEPGPKGDAGAPGAPGGKGDAGAPGERGPPGLAGAPGLRGGAGPPGPEGGKGAAGPPGPPGAAGTPGLQGMPGERGGLGSPGPKGDKGEPGGPGADGVPGKDGPRGPTGPIGPPGPAGQPGDKGEGGAPGLPGIAGPRGSPGERGETGPPGPAGFPGAPGQNGEPGGKGERGAPGEKGEGGPPGVAGPPGGSGPAGPPGPQGVKGERGSPGGPGAAGFPGARGLPGPPGSNGNPGPPGPSGSPGKDGPPGPAGNTGAPGSPGVSGPKGDAGQPGEKGSPGAQGPPGAPGPLGIAGITGARGLAGPPGMPGPRGSPGPQGVKGESGKPGANGLSGERGPPGPQGLPGLAGTAGEPGRDGNPGSDGLPGRDGSPGGKGDRGENGSPGAPGAPGHPGPPGPVGPAGKSGDRGESGPAGPAGAPGPAGSRGAPGPQGPRGDKGETGERGAAGIKGHRGFPGNPGAPGSPGPAGQQGAIGSPGPAGPRGPVGPSGPPGKDGTSGHPGPIGPPGPRGNRGERGSEGSPGHPGQPGPPGPPGAPGPC
notes: also called collagen III
Kd [6]: 0.75 nM
Kd [7]: 17 nM

Next, values leading:

Kd (recombinant Factor VIII [1]): 6.18 nM
Molecule: fragment III (SPIII, res. 764-2128) from plasma derived Von Willebrand Factor (from UniProt P04275 764-2128)

Kd [2]: 14.3 nM
Kd [3]: 1.9 nM
Kd [4]: 0.25 nM
Molecule: recombinant Factor VIII (from UniProt P00451 20-2351)

Kd (recombinant Factor VIII [1]): 155 nM
Molecule: fragment II (res. 764-1673) of Von Willebrand Factor (from UniProt P04275 764-1673)
